Experiment in all cases: cell-based or functional assay
Test [1] deals with hemagglutinin of A/Common iora/Indonesia/F89/H7N1 (influenza A virus A/Common iora/Indonesia/F89 (H7N1)).
Test [2] concerns the target hemagglutinin of A/Indonesia/CDC669/2006 (H5N1, clade 2.1) (influenza A virus A/Indonesia/CDC669/2006 (H5N1)).
Test [3] has as its target hemagglutinin of A/Indonesia/TLL013/2006 (H5N1, clade 2.1) (influenza A virus A/Indonesia/TLL013/2006 (H5N1)).
Test [4] has as its target hemagglutinin of A/Indonesia/TLL014/2006 (H5N1, clade 2.1) (influenza A virus A/Indonesia/TLL014/2006 (H5N1)).
Test [5] deals with hemagglutinin of A/chicken/Singapore/Sg02 H3N2 (influenza A virus A/chicken/Singapore/Sg02 (H3N2)).

B1: murine monoclonal antibody 4C2 (antibody, V domains shown)
VH: QESGAELVRPGASVKLSCKDSGYTFTTYWMNWVKQRPEQGLEWIGRIDPYDSETHYNQKFKDKAILTVDKSSNTAYMQLSSLTSEDSAVYYCVRGGSTVAYFGVWGQG
VL: MTQSPSSMSVSLGDTVSITCHASQDISGHIGWLQQKPGKSFKGLIYHGTNLEDGVPSRFSGSGSGADFSLTISSLESEDFADYYCVQYVQFPWTFGGGTK
With B1, the HI titer (titer (mAb at 1 mg/ml)) in test [1] is below 4; in test [2], 512; in test [3] it was 512; in test [4] it was 512; in test [5], below 4. The Microneutralization titers against H5N1 strains in test [1] was below 10; in test [2], 320; in test [3], 640; in test [4], 320; in test [5] it was below 10.

The values above are taken from patent US20130202608A1.
